Source: publication PMC4169556, “Isolation of Dihydroflavonol 4-Reductase cDNA Clones from Angelonia x angustifolia and Heterologous Expression as GST Fusion Protein in Escherichia coli” (PLoS ONE, 2014)

Columns and labels:
[1] = substrate: O=C1c2c(O)cc(O)cc2O[C@H](c2ccc(O)c(O)c2)[C@H]1O; assay: cells, lysate or membranes; format: biochemical, Angelonia angustifolia; conditions: NADPH, pH 6.5, 25 °C (standard assay), yeast protein fraction, labelled compound
[2] = substrate: O=C1c2c(O)cc(O)cc2O[C@H](c2cc(O)c(O)c(O)c2)[C@H]1O; assay: cells, lysate or membranes; format: biochemical, Angelonia angustifolia; conditions: NADPH, pH 6.5, 25 °C (standard assay), yeast protein fraction, labelled compound

B1: Ang.DFR2 (Angelonia angustifolia) (protein)
chain: METTATQPPPPSSAAAVPATVCVTGAAGFIGSWLVMKLLQRGYNVRATVRDPGNLKKIKHLTQLPKADTNLTLWKADLMEEASFDEAIEGCQGVFHLATPMEFDSKDPENEVIKPTIEGMMSIIRSCAKAKTVEKVIFTTSAGTLNVEEHQKPFYDETSWSDLDFIYSKKMTGWMYFVSKYLAEKQAVEAAKLNNIEFISIIPPVVVGPFINPAFPPSLVTALSPITGNEAHYTIMKQGQFVHLDDICEAHIFLFEHPKADGRYICSSHDATIYDIARLIRDKWPEYNVPMEFKGIDKDIPVVRFSSKKLTSMGFKFKYSLEDMYRGAIETCREKGLLPYSTHNQSNGEKKESTLQSLEKHSDDQEKVLEKRVNGRLDKQFEEQKKELLPIREEKHTNGSLEKCSDDQAKVLLPLPEEKQTNGSLEKHVMINIKTCE
notes: full-length ORF, 437 residues; pYES2.1/V5-His-TOPO in S. cerevisiae INVSc1, protein fraction, not purified
- Km [1]: 11 µM
- Km [2]: 6.5 µM
